# B1: Palindrome probe (putative binding sites 1 and 2) (dsDNA)
# DNA 1: TTTTAATAGTTCACCCCCTAAACTAACGTTATTGGTTTAGGGGGTGAACTATTATGCCCCCCATA
# DNA 2: ATAGTTCACCCCCTAAACCAATAACGTTAGTTTAGGGGGTGAACTATTAAAA
# How the values were obtained:
# PaMarR [1] = target: T1, PaMarR (Paenisporosarcina sp. TG-14, UniProt A0A8J9SKQ8); assay: X-ray crystal structure; assay type: binding; settings: 1.6 A; co-purified from expression culture, not added; identity assigned from electron density; deep cavity in dimerization domain (helices a1, a6, a7), putative effector site; ammonium citrate pH 7.0
# T1 construct: gene E2636_00495; N-terminal His6 tag (pET-28a(+), NdeI/XhoI) removed with thrombin; E. coli BL21(DE3); gene primer start TTGGATAAGAGAATAC (N-terminus M/L-DKRI)
# [2] = target: MarR protein from Paenisporosarcina sp. TG-14 (Paenisporosarcina sp. TG-14); assay: AUC; analytical ultracentrifugation at 40 000 rev/min, 20°C, detection at 280 nm, analysed with SEDFIT; one peak at a sedimentation coefficient of about 2.5 (31.3 kDa)
# PaMarR [3] = target: T2, PaMarR (Paenisporosarcina sp. TG-14, UniProt A0A8J9SKQ8 1-147); assay: EMSA; 0.3-2.1 uM PaMarR, 0.5 uM duplex; B1 (one site) at low, B2 (both sites) at high protein; protein contains palmitate; EMSA: Dulbecco's PBS, 12% (v/v) glycerol, 0.5 uM duplex, 15 min at 37 C, 20 ul; 8% native PAGE with 5% glycerol in Tris-borate; pH not stated; settings: protein: recombinant; tags: N-terminal His6 (pET-28a NdeI/XhoI), removed with thrombin; chain copies: 2; label: none (GelRed stain); as printed: 52 bp duplex, 3' overhang 13 nt on strand 1 (second strand may be printed incompletely; Methods say complementary oligos)
# T2 sequence: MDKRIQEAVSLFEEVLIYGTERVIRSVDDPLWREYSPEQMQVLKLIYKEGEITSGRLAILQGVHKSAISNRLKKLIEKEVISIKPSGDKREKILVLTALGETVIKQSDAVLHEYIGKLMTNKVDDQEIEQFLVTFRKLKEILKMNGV
molecule,measurement,setting,value
CCCCCCCCCCCCCCCC(=O)O [palmitic acid],X-ray crystal structure,PaMarR [1],"a model of palmitic acid containing a 16-carbon chain was built, which had the best fit"
MarR protein from Paenisporosarcina sp. TG-14 (natural protein),stoichiometry N,[2],2
B1,binding result,PaMarR [3],binds
